Assay results published in PMC3137634, “Concurrent Proinflammatory and Apoptotic Activity of a Helicobacter pylori Protein (HP986) Points to Its Role in Chronic Persistence” (PLoS ONE, 2011).

Molecular target: T1, recombinant HP986 (Helicobacter pylori, UniProt O25636 1-237)
T1 construct: HP986 (HP0986), protein of unknown function from the plasticity zone of Helicobacter pylori; PCR product spanning 711 bp cloned at XhoI/HindIII of pRSETA; about 29 kDa; 711 bp would be 237 codons with the stop or without; also called rHP986; HP0986; source: E. coli BL21 (DE3), purified (Ni2+-NTA, size exclusion chromatography)
T1 sequence: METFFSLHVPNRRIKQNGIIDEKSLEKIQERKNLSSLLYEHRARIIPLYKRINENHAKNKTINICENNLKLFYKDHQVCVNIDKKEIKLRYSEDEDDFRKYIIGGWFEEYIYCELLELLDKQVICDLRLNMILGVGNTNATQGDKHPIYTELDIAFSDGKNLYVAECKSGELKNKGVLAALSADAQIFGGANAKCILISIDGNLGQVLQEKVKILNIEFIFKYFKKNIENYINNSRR
Experiment: SPR; BIAcore 3000; human TNFR1/Fc amine-coupled to a CM5 chip up to 150 RU; rHP986 at 100, 400, 800 and 1200 nM in PBS, 30 µl/min; 1:1 Langmuir model
Settings: both partners purified

B1: Human TNFR1/Fc (Fc fusion, UniProt P19438 30-211, looked up)
chain: LVPHLGDREKRDSVCPQGKYIHPQNNSICCTKCHKGTYLYNDCPGPGQDTDCRECESGSFTASENHLRHCLSCSKCRKEMGQVEISSCTVDRDTVCGCRKNQYRHYWSENLFQCFNCSLCLNGTVHLSCQEKQNTVCTCHAGFFLRENECVSCSNCKKSLECTKLCLPQIENVKGTEDSGTT
notes: soluble human TNFR1 (tumor necrosis factor receptor 1) fused to Fc; Commercial TNFR1/Fc chimeras usually hold the extracellular domain joined to human IgG1 Fc at the C-terminus; also called soluble humanTNFR1; hu TNFR1; source: bought: Sigma, USA
koff: 0.000908 s⁻¹
kon: 12600 M⁻¹ s⁻¹
